{"source": "paper PMC3032713", "molecular_target": "RBSDV P9-1 as used in vitro (data not shown) (Rice black-streaked dwarf virus)", "assay": "not stated; P9-1 dimers in vitro; data not shown", "data": [{"substance": "RBSDV P9-1 as used in vitro (data not shown) (natural protein)", "values": [{"measurement": "stoichiometry N", "result": 2}]}]}
